From patent US20260317420 (published 2026)

T1: human Claudin18.1 (human, UniProt P56856)
T1 chain: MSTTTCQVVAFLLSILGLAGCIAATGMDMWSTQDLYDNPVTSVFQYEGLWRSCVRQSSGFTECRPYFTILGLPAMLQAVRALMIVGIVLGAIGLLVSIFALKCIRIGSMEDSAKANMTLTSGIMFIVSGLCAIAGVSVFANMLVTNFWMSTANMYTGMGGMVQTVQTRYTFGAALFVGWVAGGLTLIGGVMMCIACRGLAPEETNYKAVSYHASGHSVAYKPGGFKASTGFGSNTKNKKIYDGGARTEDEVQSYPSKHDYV

T2: mouse Claudin18.2 (mouse, UniProt P56857)
T2 chain: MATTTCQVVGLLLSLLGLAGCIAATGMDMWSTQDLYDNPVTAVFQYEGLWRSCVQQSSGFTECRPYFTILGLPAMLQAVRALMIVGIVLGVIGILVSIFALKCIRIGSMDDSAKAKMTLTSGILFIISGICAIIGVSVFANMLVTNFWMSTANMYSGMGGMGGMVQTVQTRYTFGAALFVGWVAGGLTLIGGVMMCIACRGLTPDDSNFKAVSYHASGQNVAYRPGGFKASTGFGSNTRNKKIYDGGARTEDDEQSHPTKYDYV

T3: mouse Claudin18.1 (mouse, UniProt P56857)
T3 chain: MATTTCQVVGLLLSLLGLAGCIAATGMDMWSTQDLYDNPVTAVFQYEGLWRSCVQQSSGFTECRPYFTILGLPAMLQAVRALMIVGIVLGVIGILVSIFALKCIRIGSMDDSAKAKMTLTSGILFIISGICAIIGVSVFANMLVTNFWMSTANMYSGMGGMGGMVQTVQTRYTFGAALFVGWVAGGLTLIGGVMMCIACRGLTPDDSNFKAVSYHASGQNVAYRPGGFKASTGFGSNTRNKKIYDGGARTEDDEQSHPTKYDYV

T4: rat Claudin18.1 (rat, UniProt Q5I0E5)
T4 chain: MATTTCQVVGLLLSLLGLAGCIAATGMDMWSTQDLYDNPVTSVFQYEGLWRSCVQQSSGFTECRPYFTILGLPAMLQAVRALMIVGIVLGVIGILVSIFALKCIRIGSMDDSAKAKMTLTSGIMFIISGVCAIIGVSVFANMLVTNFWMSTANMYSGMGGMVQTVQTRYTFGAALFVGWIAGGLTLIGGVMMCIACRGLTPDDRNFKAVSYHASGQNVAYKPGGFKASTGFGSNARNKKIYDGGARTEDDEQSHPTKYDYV


Experiments:
[1] = target: T5, human Claudin18.2 (human, UniProt P56856); test: BLI
[2] = target: T5, human Claudin18.2; test: BLI, bivalent
[3] = target: T1, human Claudin18.1; test: ELISA
[4] = target: T2, mouse Claudin18.2; test: BLI
[5] = target: T3, mouse Claudin18.1; test: FACS
[6] = target: T4, rat Claudin18.1; test: FACS

| Binder | Kd [1] [nM] | Kd [2] [nM] | binding result [3] | Kd [4] [nM] | binding result [5] | binding result [6] |
| --- | --- | --- | --- | --- | --- | --- |
| 5208H10 (SI-64CH5) (antibody, V domains shown) VH: QSVKESEGGLFKPTDTLTLTCTVSGFSLSTYAMSWVRQAPGNGLEWIGIIDAVGRTYYASWAKSRSTITRNTNLNTVTLKMTSLTAADTATYFCARWWDLWGQGTLVTVSS VL: AQVLTQTASSVSAAVGGTVTINCQSSQSVYDSNDLTWYQQKPGQSPKLLIYLASTLASGVPSRFKGSGSGTQFTLTISDLECDDSATYYCAAHYNSDIYTFGGGTEVEVK | 3 |  |  |  |  |  |
| Zolbetuximab (SI-64C8) (antibody, V domains shown) VH: QVQLQQPGAELVRPGASVKLSCKASGYTFTSYWINWVKQRPGQGLEWIGNIYPSDSYTNYNQKFKDKATLTVDKSSSTAYMQLSSPTSEDSAVYYCTRSWRGNSFDYWGQGTTLTVSS VL: DIVMTQSPSSLTVTAGEKVTMSCKSSQSLLNSGNQKNYLTWYQQKPGQPPKLLIYWASTRESGVPDRFTGSGSGTDFTLTISSVQAEDLAVYYCQNDYSYPFTFGSGTKLEIKR | 1.59 | 5.31 |  |  |  |  |
| 5103F3 BSM (SI-64M1) (antibody, V domains shown) VH: QVQLQESGGRLIKPGEPLRLSCKTSGIDLSGFAMGWVRQAPGKGLEYIGFIDSGGGAFYATWARGRFTISRTSTNTVYLQMNSLTAEDTAVYYCARHGGNTYYYAMDPWGPGTLVTVSS VL: ALRMTQSPSSLAATTGQRVTITCQASQSISNYLAWYQQKPGQPPKLLIYSASTLASGVPSRFKGSGSGTQFTLTISCVQCEDFATYYCQQVYSVTNIDNAFGGGTRVEIK | 1.45 | 0.216 | no binding | 1.73 | no binding | no binding |
